The values that follow come from patent publication US20210388084A1 (JJP BIOLOGICS SP Z O O, published 2021).

Assay [1] addresses T1, recombinant C-terminal polyhistidine-tagged human (extracellular) CD89 (human, UniProt P24071 22-227).
T1 construct: extracellular domain; bought (Sino Biological); also called rhuCD89
The assay is described as follows: ELISA, coated rhuCD89, half-maximum binding. Background: In an ELISA, binding on a coated surface is turned into a signal by an enzyme label.
Procedure: After extensive washing with PBS/0.05% Tween 20, plates were blocked with PBS/0.05% Tween 20/1% BSA (Roche) for 1 hour at RT. Subsequently, plates were incubated with 50 μL titrated (in block buffer) purified mouse anti-human CD89 antibody/well for 1 hour at RT. […] After extensive washing in PBS/0.05% Tween 20, binding of antibodies on rhuCD89 was determined with 1:5,000 diluted horseradish peroxidase (HRP)-conjugated goat anti-mouse IgG Fey-specific antibodies (Jackson ImmunoResearch) for 1 hour at RT, followed by a ready-to-use solution of TMB substrate (Invitrogen) for colorimetric detection.
After extensive washing with PBS/0.05% Tween 20, plates were blocked with PBS/0.05% Tween 20/1% BSA (Roche) for 1 hour at RT. Subsequently, plates were incubated with and without 50 μL titrated (in block buffer) purified chimeric mouse/human anti-human CD89 antibody/well for 1 hour at RT. After extensive washing in PBS/0.05% Tween 20, binding of antibodies on rhuCD89 was determined with 1:5,000 diluted horseradish peroxidase (HRP)-conjugated goat anti-human IgG Fey-specific antibodies (Jackson ImmunoResearch) for 1 hour at RT, followed by a ready-to-use solution of TMB substrate (Invitrogen) for colorimetric detection.

In assay [2] the target is T2, membrane-bound full-length human CD89 (human, UniProt P24071 22-287).
T2 construct: on stably or transiently transfected HEK293F cells; also called FcalphaRI; huCD89
The assay can be described thus: FACS, HEK293F-huCD89, half-maximum binding. On the technique in general: A flow cytometer gives signals particle by particle.
Procedure: Then, 10 μL/tube (ie, 0.1×10⁶ cells) of these cells were incubated with or without 100 μL titrated (in PBS/BSA/NaN₃) purified chimeric mouse/human anti-human CD89 antibody/tube for 30 minutes at 4° C. […] After extensive washing in PBS/BSA/NaN₃, cells were subsequently incubated with 1:200 diluted PE-conjugated goat anti-human IgG Fey-specific antibodies (Jackson ImmunoResearch) for 30 minutes at 4° C. After extensive washing in PBS/BSA/NaN₃, cells were fixed in 2% formaldehyde in PBS/BSA/NaN₃ for 30 minutes at 4° C.

B1: chimeric mouse/human anti-human CD89 antibody 16D6 (antibody, human IgG4 S228P, kappa)
heavy: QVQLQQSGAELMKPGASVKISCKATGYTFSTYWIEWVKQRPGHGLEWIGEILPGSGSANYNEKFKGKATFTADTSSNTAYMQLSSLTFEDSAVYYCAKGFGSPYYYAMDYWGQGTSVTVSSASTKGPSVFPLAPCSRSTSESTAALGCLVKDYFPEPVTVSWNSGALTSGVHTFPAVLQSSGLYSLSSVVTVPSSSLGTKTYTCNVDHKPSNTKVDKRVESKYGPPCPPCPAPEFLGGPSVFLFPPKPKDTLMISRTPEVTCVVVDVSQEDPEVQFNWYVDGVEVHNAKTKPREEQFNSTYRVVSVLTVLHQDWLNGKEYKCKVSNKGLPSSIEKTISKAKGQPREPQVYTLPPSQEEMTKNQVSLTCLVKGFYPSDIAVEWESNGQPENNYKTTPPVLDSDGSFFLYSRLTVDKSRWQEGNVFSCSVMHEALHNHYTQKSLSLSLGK
light: EIVLTQSPALMAASPGEKVTITCSVSSSISSSNLHWYQQKSETSPKPWIYGTSKLASGVPVRFSGSGSGTSYSLTISNMEAEDAATYYCQQWSSFPLTFGGGTKLEIKRTVAAPSVFIFPPSDEQLKSGTASVVCLLNNFYPREAKVQWKVDNALQSGNSQESVTEQDSKDSTYSLSSTLTLSKADYEKHKVYACEVTHQGLSSPVTKSFNRGEC
notes: mouse V regions on stabilized (S239P) human IgG4/kappa; also called chimeric 16D6; 16D16; copies: 2 + 2
Take B1: the concentration giving a half-maximal response (EC50) was 0.108 µg/mL in assay [1] and 1.79 µg/mL in assay [2].

B2: chimeric mouse/human anti-human CD89 antibody 20B4 (antibody, human IgG4 S228P, kappa)
heavy: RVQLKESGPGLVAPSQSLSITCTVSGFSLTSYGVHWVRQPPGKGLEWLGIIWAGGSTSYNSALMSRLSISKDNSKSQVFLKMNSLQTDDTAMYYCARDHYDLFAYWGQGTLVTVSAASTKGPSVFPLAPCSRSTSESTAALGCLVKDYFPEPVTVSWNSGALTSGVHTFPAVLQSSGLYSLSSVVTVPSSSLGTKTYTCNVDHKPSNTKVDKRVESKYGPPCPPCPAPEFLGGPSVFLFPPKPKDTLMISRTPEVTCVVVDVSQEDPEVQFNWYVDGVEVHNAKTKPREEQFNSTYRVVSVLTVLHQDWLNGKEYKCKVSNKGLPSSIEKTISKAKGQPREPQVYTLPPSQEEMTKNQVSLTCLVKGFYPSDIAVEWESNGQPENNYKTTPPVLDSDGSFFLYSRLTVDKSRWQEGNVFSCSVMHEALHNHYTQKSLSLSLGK
light: DILMTQSPSSMSVSLGDTVSITCHASQDISRNIGWLQQKPGKSFKGLIYHGTNLEDGVPSRFSGSGSGADYSLTISSLESEDFADYYCVQYAQFPRTFGGGTKLEIKRTVAAPSVFIFPPSDEQLKSGTASVVCLLNNFYPREAKVQWKVDNALQSGNSQESVTEQDSKDSTYSLSSTLTLSKADYEKHKVYACEVTHQGLSSPVTKSFNRGEC
notes: mouse V regions on stabilized (S239P) human IgG4/kappa; also called chimeric 20B4; copies: 2 + 2
Turning to B2, the concentration for a half-maximal effect (EC50) in assay [1] is 0.009 µg/mL; in assay [2], 0.296 µg/mL.

B3: chimeric mouse/human anti-human CD89 antibody 8F3 (antibody, human IgG4 S228P, kappa)
heavy: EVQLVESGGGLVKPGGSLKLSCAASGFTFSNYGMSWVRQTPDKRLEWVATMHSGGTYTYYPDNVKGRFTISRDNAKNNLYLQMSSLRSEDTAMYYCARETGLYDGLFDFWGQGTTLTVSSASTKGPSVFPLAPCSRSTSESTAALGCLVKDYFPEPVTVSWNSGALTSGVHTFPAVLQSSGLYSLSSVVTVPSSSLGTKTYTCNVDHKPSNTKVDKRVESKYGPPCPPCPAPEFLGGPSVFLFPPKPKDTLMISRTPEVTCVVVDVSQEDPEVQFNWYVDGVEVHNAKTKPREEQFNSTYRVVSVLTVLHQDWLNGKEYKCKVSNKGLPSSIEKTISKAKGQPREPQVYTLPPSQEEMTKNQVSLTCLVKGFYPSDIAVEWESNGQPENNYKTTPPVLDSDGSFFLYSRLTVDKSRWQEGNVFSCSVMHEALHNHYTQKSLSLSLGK
light: DVQITQSPSYLAASPGETITINCRASKTISKYLAWYQEKPGKTNMLLIYSGSTLQSGVPSRFSGSGSGTDFTLTISSLEPEDLAMYYCQQHDEYPWTFGGGTKLEIKRTVAAPSVFIFPPSDEQLKSGTASVVCLLNNFYPREAKVQWKVDNALQSGNSQESVTEQDSKDSTYSLSSTLTLSKADYEKHKVYACEVTHQGLSSPVTKSFNRGEC
notes: mouse V regions on stabilized (S239P) human IgG4/kappa; also called chimeric 8F3; copies: 2 + 2
For the molecule B3, the EC50 in assay [1] was determined as 0.031 µg/mL; in assay [2] it was 1.32 µg/mL.

B4: chimeric mouse/human anti-human CD89 antibody 10E7 (antibody, human IgG4 S228P, kappa)
heavy: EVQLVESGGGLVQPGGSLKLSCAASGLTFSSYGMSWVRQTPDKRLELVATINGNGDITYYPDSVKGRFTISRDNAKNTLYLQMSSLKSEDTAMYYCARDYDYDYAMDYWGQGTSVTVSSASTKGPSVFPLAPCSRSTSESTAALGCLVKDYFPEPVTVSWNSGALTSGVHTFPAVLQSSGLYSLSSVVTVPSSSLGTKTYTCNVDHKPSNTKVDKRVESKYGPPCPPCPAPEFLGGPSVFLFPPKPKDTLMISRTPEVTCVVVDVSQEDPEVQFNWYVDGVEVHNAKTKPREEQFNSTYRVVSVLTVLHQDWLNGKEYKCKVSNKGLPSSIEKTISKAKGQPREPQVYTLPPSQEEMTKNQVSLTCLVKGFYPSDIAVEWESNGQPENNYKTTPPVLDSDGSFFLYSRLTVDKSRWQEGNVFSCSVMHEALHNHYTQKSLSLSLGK
light: DIQMTQSTSSLSASLGDSVTISCRASQDIINYLNWYQQKPDGTVKLLIYYTSRLHSGVPSRFSGSGSGTEYSLTVSNLEKEDIATYFCQQGKTLPYTFGGGTKLEIKRTVAAPSVFIFPPSDEQLKSGTASVVCLLNNFYPREAKVQWKVDNALQSGNSQESVTEQDSKDSTYSLSSTLTLSKADYEKHKVYACEVTHQGLSSPVTKSFNRGEC
notes: mouse V regions on stabilized (S239P) human IgG4/kappa; also called chimeric 10E7; copies: 2 + 2
As to B4, the figures for the half-maximal effective concentration (EC50) in assay [1] and in assay [2] were 0.016 µg/mL and 1.25 µg/mL, respectively.

In general, EC50 refers to the concentration that produces a half-maximal response.
